Measured values published in patent publication US20170349886A1 (VEGENICS, published 2017).
Like-named read-outs stand apart in the source and are kept apart here.

B1: VGX-300 (Fc fusion)
chain: YSMTPPTLNITEESHVIDTGDSLSISCRGQHPLEWAWPGAQEAPATGDKDSEDTGVVRDCEGTDARPYCKVLLLHEVHANDTGSYVCYYKYIKARIEGTTAASSYVFVRDFEQPFINKPDTLLVNRKDAMWVPCLVSIPGLNVTLRSQSSVLWPDGQEVVWDDRRGMLVSTPLLHDALYLQCETTWGDQDFLSNPFLVHITGNELYDIQLLPRKSLELLVGEKLVLNCTVWAEFNSGVTFDWDYPGKQAERGKWVPERRSQQTHTELSSILTIHNVSQHDLGSYVCKANNGIQRFRESTEVIVHE
notes: only Ig-like domains I-III were in the molecule; Produced by transient expression in CHO or HEK cells; also called Parent; VGX-300 parent; not shown: Fc region gamma chain (detected with anti-human IgG)
B2: Human VEGF-C (ligand, UniProt P49767 103-227, looked up)
chain: TEETIKFAAAHYNTEILKSIDNEWRKTQCMPREVCIDVGKEFGVATNTFFKPPCVSVYRCGGCCNSEGLQCMNTSTSYLSKTLFEITVPLSQGPKPVTISFANHTSCRCMSKLDVYRQVHSIIRR
notes: also called VEGF-C ligand
B3: Human VEGF-D (ligand, UniProt O43915 93-201, looked up)
chain: FYDIETLKVIDEEWQRTQCSPRETCVEVASELGKSTNTFFKPPCVNVFRCGGCCNEESLICMNTSTSYISKQLFEISVPLTSVPELVPVKVANHTGCKCLPTAPRHPYS
notes: also called VEGF-D ligand
B4: VGX-301-ΔN2 (Fc fusion)
chain: YSMTPPTLNITEESHVIDTGDSLSISCRGQHPLEWAWPGAQEAPATGDKDSEDTGVVRDCEGTDARPYCKVLLLHEVHAQDTGSYVCYYKYIKARIEGTTAASSYVFVRDFEQPFINKPDTLLVNRKDAMWVPCLVSIPGLNVTLRSQSSVLWPDGQEVVWDDRRGMLVSTPLLHDALYLQCETTWGDQDFLSNPFLVHITGNELYDIQLLPRKSLELLVGEKLVLNCTVWAEFNSGVTFDWDYPGKQAERGKWVPERRSQQTHTELSSILTIHNVSQHDLGSYVCKANNGIQRFRESTEVIVHE
notes: also called N2 mutant; not shown: Fc region gamma chain as in VGX-300

How the values were obtained:
Human VEGF-C [1] = target: B2; assay: cell-based or functional assay
Human VEGF-D [2] = target: B3; assay: cell-based or functional assay
Human VEGF-C [3] = target: B2; assay: cell-based or functional assay; remark: listed apart in the source
Human VEGF-D [4] = target: B3; assay: cell-based or functional assay; remark: listed apart in the source
Human VEGF-C [5] = target: B2; assay: cell-based or functional assay; remark: listed apart in the source
Human VEGF-D [6] = target: B3; assay: cell-based or functional assay; remark: listed apart in the source
Human VEGF-C [7] = target: B2; assay: ELISA on plate-coated VEGF-C (2 µg/mL), anti-human IgG-HRP detection; sigmoidal fit of the curve of FIG. 2A
Human VEGF-D [8] = target: B3; assay: ELISA on plate-coated VEGF-D (2 µg/mL), anti-human IgG-HRP detection; sigmoidal fit of the curve of FIG. 2A
VGX-300 = target: B1; assay: SPR, ProteOn XPR36; trap captured on protein G' on a GLM chip, ligand as analyte
Text: (§1) The results of the affinity experiment are provided below in Table 5.

VGX-301-ΔN2 = target: B4; assay: as above
Text: as §1

| Binder | IC50 (read off the curve); VEGF-C-driven proliferation (WST-1) of Ba/F3 cells with the VEGFR-2 ECD/EpoR chimeric receptor (Human VEGF-C [1]) [µg/mL] | IC50 (read off the curve); VEGF-D-driven proliferation (WST-1) of Ba/F3 cells with the VEGFR-2 ECD/EpoR chimeric receptor (Human VEGF-D [2]) [µg/mL] | IC50 (read off the curve); VEGF-C-driven proliferation (WST-1) of Ba/F3 cells with the VEGFR-3 ECD/EpoR chimeric receptor (Human VEGF-C [3]) [µg/mL] | IC50 (read off the curve); VEGF-D-driven proliferation (WST-1) of Ba/F3 cells with the VEGFR-3 ECD/EpoR chimeric receptor (Human VEGF-D [4]) [µg/mL] | IC50 (read off the curve); VEGF-C-driven proliferation (WST-1) of Ba/F3 cells with the VEGFR-3 ECD/EpoR chimeric receptor (Human VEGF-C [5]) [µg/mL] | IC50 (read off the curve); VEGF-D-driven proliferation (WST-1) of Ba/F3 cells with the VEGFR-3 ECD/EpoR chimeric receptor (Human VEGF-D [6]) [µg/mL] | EC50 (Human VEGF-C [7]) [µg/mL] | EC50 (Human VEGF-D [8]) [µg/mL] | Kd (VGX-300) [nM] | koff (VGX-300) [s⁻¹] | kon (VGX-300) [M⁻¹ s⁻¹] | Kd (VGX-301-ΔN2) [nM] | koff (VGX-301-ΔN2) [s⁻¹] | kon (VGX-301-ΔN2) [M⁻¹ s⁻¹] |
| --- | --- | --- | --- | --- | --- | --- | --- | --- | --- | --- | --- | --- | --- | --- |
| B1 | ~0.02 | ~3 | ~0.01 | ~0.4 | ~0.007 | ~0.5 | 0.058 | 0.504 | – | – | – | – | – | – |
| B2 | – | – | – | – | – | – | – | – | 0.0051 | 1.11e-05 | 2.18e+06 | 0.0037 | 1.03e-05 | 2.79e+06 |
| B3 | – | – | – | – | – | – | – | – | 0.625 | – | – | 0.677 | – | – |
| B4 | – | – | – | – | ~0.005 | ~0.3 | 0.0295 | 0.105 | – | – | – | – | – | – |
